# Values of other authors in patent publication US20040120897A1, “Method for administering insulinotropic peptides” (priority 1998, published 2004).
# Conditions: calculated, background statement
row,Substance,absorption value after delivery through the lungs
1,parathyroid hormone (1-34): peptide hormone cited in the background for its pulmonary absorption value,fifteen
2,glycosylated α1-antitrypsin: protein cited in the background for its pulmonary absorption value,48 h
